The term koff denotes the rate constant with which the complex falls apart. Low values mean slow dissociation, high ones fast dissociation. By kon is commonly meant a measure of how fast the partners come together. Low readings indicate slow association, high ones fast association.

What all share (test): single-molecule TIRF real-time association assay
The target of assay [1] is human cytoplasmic dynein-1 complex (human) (UniProt Q14204).
For assay [2] the target is unchanged. The source holds these as a separate data set.
Assay [3] has the same target. The source holds these as a separate data set.

Where two headings read alike, the source gives them in different places.

On to “dynactin complex purified from HEK293T cells stably expressing p62-Halo-3xFLAG (from UniProt Q9UJW0;Q14203;P61163)”, for which, in assay [1], the dwell time, major peak was 5 s; the percent of binding events short-lived (<20 s) was 30%; the percent of complexes long-lived (>80 s) came to 9%; the percent of complexes medium-lived (20–80 s) worked out at 22%. This substance registered a percent of complexes short-lived (<20 s) in assay [1] of 69%.
On to “NINL (amino acids 1–702) with N-terminal HaloTag (from UniProt Q9Y2I6 1-702) (domain or fragment)”, for which the fraction of dynein molecules bound by the end of data acquisition in assay [2] came to 60%. In addition, in assay [1], the dwell time, major peak was 5 s; the koff is 0.0627 s⁻¹; the kon stood at 9.21e+06 M⁻¹ s⁻¹; the percent of binding events short-lived (<20 s) was determined as 32%. In assay [1], the percent of complexes long-lived (>80 s) worked out at 16%, the percent of complexes medium-lived (20–80 s) was found to be 37% and the percent of complexes short-lived (<20 s) was 47%. Moreover, the kon in assay [3] came out at 7.97e+06 M⁻¹ s⁻¹.
In assay [2], “BicD2 (amino acids 1–598) with N-terminal HaloTag (from UniProt Q8TD16 1-598) (domain or fragment)” came in with a fraction of dynein molecules bound by the end of data acquisition below 25%, a koff of 0.038 s⁻¹, a percent of complexes long-lived (>80 s) of 6% and a percent of complexes medium-lived (20–80 s) of 22%. The same substance yielded a percent of complexes short-lived (<20 s) in assay [2] of 72%. In assay [1], this substance showed a koff of 0.137 s⁻¹ and a percent of complexes long-lived (>80 s) of 37%.

(Values after paper PMC11997335.)
